Patent US20240092930A1 (MABWELL SHANGHAI BIOSCIENCE, published 2024)

T1: human Trop-2 on the surface of cells (CHO/Trop-2 cells; BxPC-3 cells; NCI-N87 cells) (human, UniProt P09758 27-323)
T1 construct: whole, on cells; One molecule for all cell lines; the cell line is named under assay or readout; also called Trop-2 on the surface of CHO cells; recombinant human Trop-2 protein on the surface of CHO cells
T1 sequence (looked up): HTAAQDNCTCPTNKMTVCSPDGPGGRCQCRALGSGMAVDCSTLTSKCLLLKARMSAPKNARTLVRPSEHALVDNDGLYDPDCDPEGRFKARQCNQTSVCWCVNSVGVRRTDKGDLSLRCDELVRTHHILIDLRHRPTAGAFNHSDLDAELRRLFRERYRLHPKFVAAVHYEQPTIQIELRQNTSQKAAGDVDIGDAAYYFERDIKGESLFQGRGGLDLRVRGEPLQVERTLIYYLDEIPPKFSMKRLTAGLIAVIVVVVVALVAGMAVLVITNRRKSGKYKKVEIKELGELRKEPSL

T2: recombinant human Trop-2-his protein (ACCESSION NO.: NP_002344.2, AA 1-274) (human, UniProt P09758 27-274)
T2 construct: range 27-274; also called recombinant human Trop-2 protein; recombinant human Trop-2 extracellular domain; not shown: his tag
T2 sequence (looked up): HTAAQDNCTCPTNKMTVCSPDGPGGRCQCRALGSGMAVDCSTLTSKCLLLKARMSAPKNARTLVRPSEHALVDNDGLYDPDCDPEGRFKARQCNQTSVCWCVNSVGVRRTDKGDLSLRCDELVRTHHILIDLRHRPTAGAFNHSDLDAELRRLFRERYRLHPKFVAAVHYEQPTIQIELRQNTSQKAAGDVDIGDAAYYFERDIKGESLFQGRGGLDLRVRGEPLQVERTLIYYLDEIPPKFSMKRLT

B1: chimeric antibody ch3-11 (antibody, human IgG1, V domains shown)
VH: QVQLQQPGAELVKPGSSVKLSCKASGYTFTSYWMYWVKQRPGQGLEWIGEINPSNGRTNYNEKFKSKATLTVDKSSSTAYMQFSSLTSEDSAVYYCTREGHNYDGSLGAMDHWGQGTSVTVSS
VL: DVVVTQTPLSLPVSFGDQVSISCRSSQSLTNSYGNTFLSWYLHKPGQSPQLLLYGISNRFSGVPDRFSGSGSGTDFTLKINTIKPEDLGMYYCFQSTHQPYTFGGGTKLEIK
B2: chimeric antibody ch4-3 (antibody, human IgG1, V domains shown)
VH: QVQLQQSGPELVKPGASVKMSCKASGFTFTDYVIGWVKQRTGQGLEWIGEIYLGSGTIYYTEKFKGKATLTADTSSNTAYMQLSSLTSEDSAVYFCARGSIFPFDYWGQGTTLTVSS
VL: QIVLTQSPAIMSASPGEKVTMTCSASSSVSYMYWYQQKPGSSPRLLIYDTSTLASGVPVRFSGSGSGTSYSLTISRMEAEDAATYYCQQWSSYPYTFGGGTKLEIK
B3: h23-12-SN38 (antibody, human IgG1, kappa, V domains shown)
VH: QVQLVQSGAEVKKPGASVKVSCKASGYTFTSYWMHWVRQAPGQGLEWMGEITPSDNYGSYNQKFKGRVTITRDTSTSTAYMELSSLRSEDTAVYYCARGHGNYVSFDYWGQGTLVTVSS
VL: DIQMTQSPSSLSASVGDRVTITCRASQDISNYLNWYQQKPGKAPKLLIYYTSRLESGVPSRFSGSGSGTDFTLTISSLQPEDFATYFCQQGYTLPPYTFGQGTKLEIKR
modifications: CL2A-SN-38 conjugated to the DTT-reduced antibody; 7.5 SN38 per antibody; sites not stated
notes: also called h23-12 labeled with SN38
B4: chimeric antibody ch11-4 (antibody, human IgG1, V domains shown)
VH: QVQLQQPGAELVRPGASVNLSCKASGYTFTSYWINWVKQRPGQGLEWIGNIYPSNSYTNYNQKFKDTATLTVDKSSSTAYMQLSSPTSEDSAVYFCSSYRSDGFAYWGQGTLVTVSA
VL: DILLTQSPAILSVSPGEKVSFSCRASQNIGTSIHWYQQRTNGSPRLLIEFASESISGIPSRFSGSGSGTDFTLTINSVESEDIADYYCQQSNSWPFTFGGGTKLEIK
B5: ch11-4-SN38 (antibody, V domains shown)
VH: QVQLQQPGAELVRPGASVNLSCKASGYTFTSYWINWVKQRPGQGLEWIGNIYPSNSYTNYNQKFKDTATLTVDKSSSTAYMQLSSPTSEDSAVYFCSSYRSDGFAYWGQGTLVTVSA
VL: DILLTQSPAILSVSPGEKVSFSCRASQNIGTSIHWYQQRTNGSPRLLIEFASESISGIPSRFSGSGSGTDFTLTINSVESEDIADYYCQQSNSWPFTFGGGTKLEIK
modifications: CL2A-SN-38 conjugated to the DTT-reduced antibody; 7.5 SN38 per antibody; sites not stated
notes: also called ch11-4 labeled with SN38
B6: chimeric antibody ch23-12 (antibody, human IgG1, V domains shown)
VH: QVQLQQPGAELVKPGASVKLSCKADGYIFTSYWMHWVKQRPGQGLEWIGEITPSDNYTSYNQKFKGKATLTVDKSSSTAYMQLSSLTSEDSAVYYCTRGHGNYVSFDYWGQGTTLTVSS
VL: DIQMTQITSSLSASLGDRVTITCRASQDISNYLNWYQQKPDGTVKLLIYYTSRLHSGVPSRFSGSGSGTDYSLTISNLEQEDIATYFCQQGYTLPPYTFGGGTKLEIK
B7: chimeric antibody ch17-1 (antibody, human IgG1, V domains shown)
VH: EVKLVESGGVLVKPGGSLKLSCAASGFTFSDSAMSWVRQTPEKRLEWVASISRGDDTYYPDSVKGRITISRDFARNILYLQMTSLRSEDTAMYYCTRDRFGFAYWGQGTLVTVSA
VL: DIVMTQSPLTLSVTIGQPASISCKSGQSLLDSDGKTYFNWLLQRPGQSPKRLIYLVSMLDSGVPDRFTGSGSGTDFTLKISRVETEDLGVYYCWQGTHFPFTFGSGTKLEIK

How the values were obtained:
[1] = target: T1, human Trop-2 on the surface of cells …; test: FACS, CHO/Trop-2 cells
Experimental: Suspensions of CHO cells recombinantly expressing human Trop-2 (CHO/Trop-2 cells) were incubated with chimeric antibodies ch3-11, ch4-3, ch17-1, ch11-4, and ch23-12 (dilutions at concentrations of 30 μg/ml and 10 μg/ml, and serial dilutions of 9 concentrations obtained through 3-fold serially diluting a solution with an initial concentration of 5 μg/ml, 11 concentrations in total) for 30 min at 37° C. Controls as follows were set: (1) Positive Control (PC): control antibody Sacituzumab; (2) Negative Control (NC): IgG1 isotype control antibody NC-IgG1. The cells were washed 3 times with PBS, and 1:100 dilution of goat anti-human IgG-FITC (Cat.: F9512, Sigma) was added into the cell which then were incubated for 30 min. Then the cells were washed 3 times with PBS again, and the Mean Fluorescence Intensity (MFI) of the cells was measured by a flow cytometer (model B49007AD, SNAW31211, BECKMAN COULTER) to detect binding ability of the chimeric antibodies to human Trop-2 on the surface of CHO cells.

[2] = target: T1, human Trop-2 on the surface of cells …; test: cell-based or functional assay
[3] = target: T2, recombinant human Trop-2-his protein …; test: ELISA, coated Trop-2-his 0.2 µg/ml
Experimental: Plates were coated with recombinant human Trop-2-his protein (ACCESSION NO.: NP_002344.2, AA 1-274) at a concentration of 0.2 μg/ml overnight at 4° C. and then blocked with 5% BSA for 60 min in a constant temperature incubator at 37° C. Chimeric antibodies ch3-11, ch4-3, ch17-1, ch11-4, and ch23-12 and control antibody Sacituzumab (serial dilutions of 8 concentrations in total obtained through 3-fold serially diluting a solution with an initial concentration of 2 μg/ml) were added into the plates which were then incubated in a constant temperature incubator at 37° C. for 60 min. The plates were washed with PBST 4 times, and 1:5000 dilution of HRP-anti-human Fc (Cat.: 109-035-098, Jackson ImmunoResearch) was added into the plates for reaction for 45 min. TMB (Cat.: ME142, GalaxyBio, Beijing) substrate was added for color development for 15 min, and then 2M HCl was added to stop reaction. Absorbances at 450 nm and at 630 nm (as reference wavelength) were read, and A450 nm-630 nm values of the wells in the plates were recorded.

[4] = target: T1, human Trop-2 on the surface of cells …; test: cell-based or functional assay; remark: listed apart in the source
[5] = target: T1, human Trop-2 on the surface of cells …; test: cell-based or functional assay; remark: listed apart in the source
[6] = target: T2, recombinant human Trop-2-his protein …; test: BLI, antibody on AHC sensor, Trop-2-his 60 nM
Experimental: (§1) 5-6 days after cell transfection, culture supernatants were purified through ProA affinity chromatography column to obtain different humanized antibodies. Affinities of the obtained antibodies were determined by an assay including capturing Fc fragments of the antibodies with anti-human IgG Fc capture (AHC) biosensors using Octet QKe system instrument from Fortebio. For the assay, each of the humanized antibodies and control antibody Sacituzumab was diluted to 4 μg/ml in PBS, and was allowed to flow through the surface of an AHC biosensor (Cat.: 18-0015, PALL) for 120 s. Recombinant human Trop-2-his protein (ACCESSION NO.: NP_002344.2, AA 1-274) was used as a mobile phase, and its concentration was 60 nM. The binding time was 100 s and the dissociation time was 300 s. When the assay was finished, data from which the response values of blank control had been deducted were fitted to a 1:1 Langmuir binding model using software, and then kinetic constants for antigen-antibody binding were calculated.
Affinities of the antibodies obtained from the combinations of mutants of murine antibody 23-12, chimeric antibody ch4-3 and control antibody Sacituzumab to recombinant human Trop-2-his protein were determined by ForteBio (Table 8).

[7] = target: T2, recombinant human Trop-2-his protein …; test: BLI, naked antibody on AHC sensor, Trop-2-his 60 nM, 300 s binding
Experimental: (§2) Affinities of the antibodies were determined by an assay including capturing Fc fragments of the antibodies with anti-human IgG Fc capture (AHC) biosensors using Octet QKe system instrument from Fortebio.
(§3) For the assay, SN38-labeled antibodies prepared as described above: h23-12-SN38, ch4-3-SN38, ch11-4-SN38, and positive control antibody Sacituzumab-SN38, as well as naked antibodies h23-12, ch4-3, ch11-4, and positive control antibody Sacituzumab were diluted to 4 μg/ml with PBS and allowed to flow through the surface of an AHC biosensor (Cat.: 18-0015, PALL) for 120 s. Recombinant human Trop-2-his protein (ACCESSION NO.: NP_002344.2, AA 1-274) was used as a mobile phase, and its concentration was 60 nM. The binding time was 300 s and the dissociation time was 300 s. When the assay was finished, data from which the response value of blank control had been deducted were fitted to a 1:1 Langmuir binding model using software, and then kinetic constants for antigen-antibody binding were calculated.

[8] = target: T1, human Trop-2 on the surface of cells …; test: cell-based or functional assay; remark: listed apart in the source
[9] = target: T2, recombinant human Trop-2-his protein …; test: BLI, SN38-labeled antibody on AHC sensor, Trop-2-his 60 nM, 300 s binding
Experimental: as §2, §3

[10] = target: T2, recombinant human Trop-2-his protein …; test: BLI, antibody on AHC sensor, Trop-2-his 60 nM; remark: listed apart in the source
Experimental: as §1
Affinities of the antibodies obtained from the combinations of mutants of murine antibody 11-4, chimeric antibody ch11-4 and control antibody Sacituzumab to recombinant human Trop-2-his protein were determined by ForteBio (Table 11).

[11] = target: T2, recombinant human Trop-2-his protein …; test: BLI, antibody on AHC sensor, Trop-2-his 60 nM; remark: listed apart in the source
Experimental: as §1
Affinities of the antibodies obtained from the combinations of mutants of murine antibody 23-12, chimeric antibody ch23-12 and control antibody Sacituzumab to recombinant human Trop-2-his protein were determined by ForteBijo (Table 5).

Binder	EC50 [1]	Internalization percentage (%), 1 h, BxPC-3 cells, FACS [2]	Internalization percentage (%), 3 h, BxPC-3 cells, FACS [2]	Internalization percentage (%), 5 h, BxPC-3 cells, FACS [2]	EC50 [3]	Internalization percentage, 1 h, NCI-N87 cells, FACS [4]	Internalization percentage, 1 h, BXPC-3 cells, FACS [5]	Kd [6]	Kd [7]	IC50 (µg/ml), inhibitory activity of anti-Trop-2 ADCs on cell growth, BxPC-3 cells [8]	Kd [9]	Kd [10]	Kd [11]
B1	0.993 nM	1.12%	-5.13%	-8.48%	0.315 nM								
B2	3.33 nM	17.1%	23.1%	28.1%	0.32 nM	50.2%	30.7%	0.3 nM	0.323 nM				
B3						51.1%	20.1%			1.41 µg/mL	0.441 nM		
B4	1.15 nM	-2%	-7.4%	-9.38%	0.237 nM		15.5%		0.176 nM			0.264 nM	
B5							51.1%			2.88 µg/mL	0.0734 nM		
B6	2.75 nM	16.2%	21.1%	27.1%	0.458 nM								0.715 nM
B7	2.92 nM				0.328 nM								
